# Source: article PMC3999168
# pKd: −log10 of the molar value.
# Tested on: LL-37 (native) (human)
# Test: EMSA
# Conditions: EMSA with 5' 6-FAM PCR products, as previously published; buffer, salt, pH and temperature not in the material
row,Substance,pKd
1,algT (algU) fragment,4.89
2,lecB fragment,4.89
3,mucA fragment,4.89
